Experimental data taken from patent US20040096444A1 (DUKE UNIVERSITY, published 2004).

Target: T1, VDAC1 on the surface of human umbilical vein endothelial cells (HUVEC) (human, UniProt P21796 2-283)
T1 construct: Endogenous protein on primary HUVEC; The assays were done on whole cells; also called K5 receptor on HUVEC; plasma membrane VDAC1
Assay: 125I-K5 saturation binding to HUVEC monolayers at 4 C, fit to the Langmuir isotherm
Experimental: Ligand binding analysis. Cells were grown in tissue culture plates until the monolayers were confluent. The cells were washed in HBSS. […] Wells were stripped from the plates and radioactivity was determined. Molecules of ligand bound were calculated after substraction of nonspecific binding measured in the presence of 50 mM p-amino-benzamidine.

T1 sequence (P21796 2-283): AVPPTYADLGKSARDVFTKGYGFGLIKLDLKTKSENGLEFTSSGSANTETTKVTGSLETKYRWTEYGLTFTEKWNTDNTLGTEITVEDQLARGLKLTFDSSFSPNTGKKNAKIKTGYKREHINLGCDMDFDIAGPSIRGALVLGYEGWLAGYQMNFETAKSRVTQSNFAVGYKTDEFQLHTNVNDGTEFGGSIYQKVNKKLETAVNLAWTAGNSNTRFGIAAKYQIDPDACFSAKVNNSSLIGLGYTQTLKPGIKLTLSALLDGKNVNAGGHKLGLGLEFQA

B1: plasminogen kringle 5 (K5), purified from pepsin digestion of human mini-Pg (ligand, UniProt P00747 481-560, looked up)
chain: CMFGNGKGYRGKRATTVTGTPCQDWAAQEPHRHSIFTPETNPRAGLEKNYCRNPDGDVGGPWCYTTNPRKLYDYCDVPQC
modifications: 125I-labeled Bolton Hunter reagent (labelled form used in the binding assays)
notes: domain: kringle 5; Proteolytic fragment (elastase, then pepsin) of purified human Pg 2; also called Pg kringle 5; angiostatin kringle-5
Kd: 28 nM
